Experimental data from patent publication US20230220008A1.

Target: CD137 on Jurkat reporter cells (Promega) (UniProt Q07011)
Assay: cell-based or functional assay

CD137 on Jurkat reporter cells (Promega), sequence (Q07011 24-255 limits assumed): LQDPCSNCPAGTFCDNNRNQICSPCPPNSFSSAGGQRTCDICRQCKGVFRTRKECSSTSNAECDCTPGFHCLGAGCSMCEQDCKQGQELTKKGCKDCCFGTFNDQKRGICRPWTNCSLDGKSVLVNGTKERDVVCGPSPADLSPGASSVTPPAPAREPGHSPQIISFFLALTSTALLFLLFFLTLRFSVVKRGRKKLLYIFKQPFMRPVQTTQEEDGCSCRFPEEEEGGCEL

Average EC50: 14.2 nM
Average fold induction: 4 fold
Substance: CD137 ligand (from UniProt P41273 71-254)
